{"source": "paper doi:10.1101/2024.05.10.593530", "molecular_target": "Vibrio cholerae DdmD (Vibrio cholerae)", "experiment": "SEC-MALS"}
{"substance": "Vibrio cholerae DdmD (enzyme)", "values": [{"measurement": "stoichiometry N", "value": 2}]}
